In patent US20240252613A1 (ACHELOIS BIOPHARMA, published 2024):

Key:
[1] = target: T1, CD2 on transfected S293 cells (Mus musculus (Mouse), UniProt P08920 23-344); test: FACS, unlabeled MVP on transfected cells, detected with antibody
T1 sequence: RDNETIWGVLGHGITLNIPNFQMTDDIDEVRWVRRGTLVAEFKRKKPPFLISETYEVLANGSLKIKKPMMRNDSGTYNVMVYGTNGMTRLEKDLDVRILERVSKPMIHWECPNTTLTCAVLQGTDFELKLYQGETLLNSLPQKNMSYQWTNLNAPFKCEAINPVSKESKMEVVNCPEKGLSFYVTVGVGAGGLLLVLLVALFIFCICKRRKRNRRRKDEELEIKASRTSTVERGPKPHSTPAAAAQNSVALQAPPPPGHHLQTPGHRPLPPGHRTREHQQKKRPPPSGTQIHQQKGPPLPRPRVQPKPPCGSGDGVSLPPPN

[2] = target: T2, GITR Ligand on transfected S293 cells (Mus musculus (Mouse), UniProt Q7TS55 1-173); test: FACS, dye-labeled MVP on transfected S293 cells
T2 sequence: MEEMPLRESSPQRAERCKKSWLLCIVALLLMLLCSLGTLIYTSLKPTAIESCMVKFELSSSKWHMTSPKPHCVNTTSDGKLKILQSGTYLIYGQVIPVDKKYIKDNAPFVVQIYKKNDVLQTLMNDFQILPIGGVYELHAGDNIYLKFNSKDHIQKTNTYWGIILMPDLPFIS

[3] = target: T2, GITR Ligand on transfected S293 cells; test: FACS, unlabeled MVP on transfected cells, detected with antibody
[4] = target: T3, 4-1BBL on transfected S293 cells (Mus musculus (Mouse), UniProt P41274 1-309); test: FACS, dye-labeled MVP on transfected S293 cells
T3 construct: also called 4-1BB ligand
T3 sequence: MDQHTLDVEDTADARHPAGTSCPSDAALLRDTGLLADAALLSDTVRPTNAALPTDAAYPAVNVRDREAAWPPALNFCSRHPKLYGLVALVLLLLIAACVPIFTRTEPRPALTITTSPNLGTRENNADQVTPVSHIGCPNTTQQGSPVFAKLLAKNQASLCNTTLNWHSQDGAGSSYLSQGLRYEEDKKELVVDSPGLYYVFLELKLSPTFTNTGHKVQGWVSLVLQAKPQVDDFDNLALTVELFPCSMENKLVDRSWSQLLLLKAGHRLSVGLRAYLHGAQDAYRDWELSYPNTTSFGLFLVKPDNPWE

[5] = target: T4, OX40L on transfected S293 cells (Mus musculus (Mouse), UniProt P43488 1-198); test: FACS, dye-labeled MVP on transfected S293 cells
T4 construct: also called OX40 ligand
T4 sequence: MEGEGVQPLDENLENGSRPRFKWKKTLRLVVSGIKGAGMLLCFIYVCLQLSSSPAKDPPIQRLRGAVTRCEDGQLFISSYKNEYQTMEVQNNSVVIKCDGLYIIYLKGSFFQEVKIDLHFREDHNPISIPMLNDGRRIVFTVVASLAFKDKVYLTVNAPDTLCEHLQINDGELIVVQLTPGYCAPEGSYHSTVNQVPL

[6] = target: T4, OX40L on transfected S293 cells; test: FACS, unlabeled MVP on transfected cells, detected with antibody
[7] = target: T5, ICOS ligand on transfected S293 cells (Mus musculus (Mouse), UniProt Q9JHJ8 47-322); test: FACS, dye-labeled MVP on transfected S293 cells
T5 sequence: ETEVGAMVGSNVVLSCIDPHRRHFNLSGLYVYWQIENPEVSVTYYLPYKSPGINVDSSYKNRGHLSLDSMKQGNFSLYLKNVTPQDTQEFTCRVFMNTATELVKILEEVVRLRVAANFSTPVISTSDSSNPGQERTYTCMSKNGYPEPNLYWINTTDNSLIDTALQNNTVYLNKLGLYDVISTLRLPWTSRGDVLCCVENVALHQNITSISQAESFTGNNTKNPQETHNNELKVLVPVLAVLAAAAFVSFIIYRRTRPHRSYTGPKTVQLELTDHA

[8] = target: T6, human TIM-3 on transfected S293 cells (human, UniProt Q8TDQ0 22-301); test: FACS, dye-labeled MVP on transfected S293 cells
T6 construct: also called HAVCR2
T6 sequence: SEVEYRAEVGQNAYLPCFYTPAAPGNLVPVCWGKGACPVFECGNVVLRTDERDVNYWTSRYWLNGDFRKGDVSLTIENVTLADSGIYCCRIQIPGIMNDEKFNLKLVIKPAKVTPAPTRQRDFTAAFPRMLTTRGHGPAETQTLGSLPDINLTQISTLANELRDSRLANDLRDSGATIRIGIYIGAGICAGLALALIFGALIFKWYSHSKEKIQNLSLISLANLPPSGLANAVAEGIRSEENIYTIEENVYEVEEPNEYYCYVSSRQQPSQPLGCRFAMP

[9] = target: T6, human TIM-3 on transfected S293 cells; test: FACS, unlabeled MVP on transfected cells, detected with antibody

B1: CD48-MVP (other)
chain: FQGHSIPDINATTGSNVTLKIHKDPLGPYKRITWLHTKNQKILEYNYNSTKTIFESEFKGRVYLEENNGALHISNVRKEDKGTYYMRVLRETENELKITLEVFDPVPKPSIEINKTEASTDSCHLRLSCEVKDQHVDYTWYESSGPFPKKSPGYVLDLIVTPQNKSTFYTCQVSNPVSSKNDTVYFTLPCDLARSSGVCWTATWLVVTTLIIHRILLTIIQADGWMCHASKWVTTCDFRWYGPKYITHSIRSFTPSVEQCKESIEQTKQGTWLNPGFPPQSCGYATVTDAEAVIVQVTPHHVLVDEYTGEWVDSQFINGKCSNYICPTVHNSTTWHSDYKVKGLCDSNLGMLDSDLHLSSKAQVFEHPHIQDAASQLPDDESLFFGDTGLSKNPIELVEGWFSSWKSSIASFFFIIGLIIGLFLVLRVGIHLCIKLKHTKKRQIYTDIEMNRLGK
notes: also called CD48-MVPs; Murine CD48-MVP
[1]
  staining shift of target+ over target- cells: > 1 log

B2: GITR-MVP (other)
chain: QPSVVEEPGCGPGKVQNGSGNNTRCCSLYAPGKEDCPKERCICVTPEYHCGDPQCKICKHYPCQPGQRVESQGDIVFGFRCVACAMGTFSAGRDGHCRLWTNCSQFGFLTMFPGNKTHNAVCIPEPLPTEQYGHIIQADGWMCHASKWVTTCDFRWYGPKYITHSIRSFTPSVEQCKESIEQTKQGTWLNPGFPPQSCGYATVTDAEAVIVQVTPHHVLVDEYTGEWVDSQFINGKCSNYICPTVHNSTTWHSDYKVKGLCDSNLGMLDSDLHLSSKAQVFEHPHIQDAASQLPDDESLFFGDTGLSKNPIELVEGWFSSWKSSIASFFFIIGLIIGLFLVLRVGIHLCIKLKHTKKRQIYTDIEMNRLGK
notes: also called GITR-MVPs; Murine GITR-MVP
[2]
  fluorescence shift relative to control MVPs: ≥ 2 log
[3]
  staining shift of target+ over target- cells: 1 log

B3: 4-1BB-MVP (other)
chain: VQNSCDNCQPGTFCRKYNPVCKSCPPSTFSSIGGQPNCNICRVCAGYFRFKKFCSSTHNAECECIEGFHCLGPQCTRCEKDCRPGQELTKQGCKTCSLGTFNDQNGTGVCRPWTNCSLDGRSVLKTGTTEKDVVCGPPVVSFSPSTTISVTPEGGPGGHSLQVLTDIIQADGWMCHASKWVTTCDFRWYGPKYITHSIRSFTPSVEQCKESIEQTKQGTWLNPGFPPQSCGYATVTDAEAVIVQVTPHHVLVDEYTGEWVDSQFINGKCSNYICPTVHNSTTWHSDYKVKGLCDSNLGMLDSDLHLSSKAQVFEHPHIQDAASQLPDDESLFFGDTGLSKNPIELVEGWFSSWKSSIASFFFIIGLIIGLFLVLRVGIHLCIKLKHTKKRQIYTDIEMNRLGK
notes: also called 4-1BB-MVPs; Murine 4-1BB-MVP
[4]
  fluorescence shift relative to control MVPs: ≥ 2 fold

B4: OX40-MVP (other)
chain: VTARRLNCVKHTYPSGHKCCRECQPGHGMVSRCDHTRDTLCHPCETGFYNEAVNYDTCKQCTQCNHRSGSELKQNCTPTQDTVCRCRPGTQPRQDSGYKLGVDCVPCPPGHFSPGNNQACKPWTNCTLSGKQTRHPASDSLDAVCEDRSLLATLLWETQRPTFRPTTVQSTTVWPRTSELPSPPTLVTPEGPADIIQADGWMCHASKWVTTCDFRWYGPKYITHSIRSFTPSVEQCKESIEQTKQGTWLNPGFPPQSCGYATVTDAEAVIVQVTPHHVLVDEYTGEWVDSQFINGKCSNYICPTVHNSTTWHSDYKVKGLCDSNLGMLDSDLHLSSKAQVFEHPHIQDAASQLPDDESLFFGDTGLSKNPIELVEGWFSSWKSSIASFFFIIGLIIGLFLVLRVGIHLCIKLKHTKKRQIYTDIEMNRLGK
notes: also called OX40-MVPs; Murine OX40-MVP
[5]
  fluorescence shift relative to control MVPs: ≥ 2 fold
[6]
  staining shift of target+ over target- cells: 1 log

B5: ICOS-MVP (other)
chain: EINGSADHRMFSFHNGGVQISCKYPETVQQLKMRLFREREVLCELTKTKGSGNAVSIKNPMLCLYHLSNNSVSFFLNNPDSSQGSYYFCSLSIFDPPPFQERNLSGGYLHIYESQLCCQLKLDIIQADGWMCHASKWVTTCDFRWYGPKYITHSIRSFTPSVEQCKESIEQTKQGTWLNPGFPPQSCGYATVTDAEAVIVQVTPHHVLVDEYTGEWVDSQFINGKCSNYICPTVHNSTTWHSDYKVKGLCDSNLGMLDSDLHLSSKAQVFEHPHIQDAASQLPDDESLFFGDTGLSKNPIELVEGWFSSWKSSIASFFFIIGLIIGLFLVLRVGIHLCIKLKHTKKRQIYTDIEMNRLGK
notes: also called ICOS-MVPs; Murine ICOS-MVP
[7]
  fluorescence shift relative to control MVPs: ~2 fold

B6: human Ceacam1-MVP (other)
chain: QLTTESMPFNVAEGKEVLLLVHNLPQQLFGYSWYKGERVDGNRQIVGYAIGTQQATPGPANSGRETIYPNASLLIQNVTQNDTGFYTLQVIKSDLVNEEATGQFHVYPELPKPSISSNNSNPVEDKDAVAFTCEPETQDTTYLWWINNQSLPVSPRLQLSNGNRTLTLLSVTRNDTGPYECEIQNPVSANRSDPVTLNVTYGPDTPTISPSDTYYRPGANLSLSCYAASNPPAQYSWLINGTFQQSTQELFIPNITVNNSGSYTCHANNSVTGCNRTTVKTIIVTELSPVVAKPQIKASKTTVTGDKDSVNLTCSTNDTGISIRWFFKNQSLPSSERMKLSQGNTTLSINPVKREDAGTYWCEVFNPISKNQSDPIMLNVNYNALPQENGLSPGIIQADGWMCHASKWVTTCDFRWYGPKYITHSIRSFTPSVEQCKESIEQTKQGTWLNPGFPPQSCGYATVTDAEAVIVQVTPHHVLVDEYTGEWVDSQFINGKCSNYICPTVHNSTTWHSDYKVKGLCDSNLGMLDSDLHLSSKAQVFEHPHIQDAASQLPDDESLFFGDTGLSKNPIELVEGWFSSWKSSIASFFFIIGLIIGLFLVLRVGIHLCIKLKHTKKRQIYTDIEMNRLGK
notes: also called Ceacam1-MVPs
[8]
  fluorescence shift relative to control MVPs: ~2 fold
[9]
  staining shift of target+ over target- cells: ~2 fold
